Assay results taken from article PMC3910249 (Molecular cell, 2013).

Molecular target: T1, FtsY NG domain (SRP receptor FtsY, residues 196-498) (E. coli, UniProt P10121 196-497)
T1 sequence (looked up): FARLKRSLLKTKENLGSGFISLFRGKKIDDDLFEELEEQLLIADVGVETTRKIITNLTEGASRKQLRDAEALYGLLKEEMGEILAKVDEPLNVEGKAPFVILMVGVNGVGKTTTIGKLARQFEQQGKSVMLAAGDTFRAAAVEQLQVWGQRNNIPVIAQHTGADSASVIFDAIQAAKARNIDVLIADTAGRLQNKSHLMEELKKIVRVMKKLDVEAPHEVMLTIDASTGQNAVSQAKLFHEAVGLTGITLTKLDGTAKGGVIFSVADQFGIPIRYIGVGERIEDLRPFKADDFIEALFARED
Assay: SEC

binding result: binds
B1: Ffh NG domain (signal recognition particle protein Ffh, residues 1-298) (domain or fragment, E. coli, UniProt P0AGD7 1-298, looked up)
chain: MFDNLTDRLSRTLRNISGRGRLTEDNVKDTLREVRMALLEADVALPVVREFINRVKEKAVGHEVNKSLTPGQEFVKIVRNELVAAMGEENQTLNLAAQPPAVVLMAGLQGAGKTTSVGKLGKFLREKHKKKVLVVSADVYRPAAIKQLETLAEQVGVDFFPSDVGQKPVDIVNAALKEAKLKFYDVLLVDTAGRLHVDEAMMDEIKQVHASINPVETLFVVDAMTGQDAANTAKAFNEALPLTGVVLTKVDGDARGGAALSIRHITGKPIKFLGVGEKTEALEPFHPDRIASRILGMG
